Values quoted from earlier work, collected in PMC10551901.

Tests used:
Rab32 (Homo sapiens) = Rab32 (Homo sapiens) (UniProt Q13637)
Rab38 (Homo sapiens) = Rab38 (Homo sapiens) (UniProt P57729)
Rab29 (Homo sapiens) = Rab29 (Homo sapiens) (UniProt O14966)

Measured: Kd

Sequence of UniProt P57729 (P57729 whole entry): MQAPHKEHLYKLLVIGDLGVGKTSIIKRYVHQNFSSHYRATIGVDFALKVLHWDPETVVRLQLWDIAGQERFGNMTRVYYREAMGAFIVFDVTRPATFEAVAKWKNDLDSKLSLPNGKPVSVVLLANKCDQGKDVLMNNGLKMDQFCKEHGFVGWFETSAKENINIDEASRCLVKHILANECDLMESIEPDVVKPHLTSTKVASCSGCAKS
Sequence of UniProt O14966 (O14966 whole entry): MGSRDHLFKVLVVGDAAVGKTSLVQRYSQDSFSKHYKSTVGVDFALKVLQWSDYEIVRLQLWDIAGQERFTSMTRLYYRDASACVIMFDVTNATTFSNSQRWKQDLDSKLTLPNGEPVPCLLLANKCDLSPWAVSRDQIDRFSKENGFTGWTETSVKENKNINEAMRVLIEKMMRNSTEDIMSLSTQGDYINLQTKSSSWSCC
Sequence of UniProt Q13637 (Q13637 2-225): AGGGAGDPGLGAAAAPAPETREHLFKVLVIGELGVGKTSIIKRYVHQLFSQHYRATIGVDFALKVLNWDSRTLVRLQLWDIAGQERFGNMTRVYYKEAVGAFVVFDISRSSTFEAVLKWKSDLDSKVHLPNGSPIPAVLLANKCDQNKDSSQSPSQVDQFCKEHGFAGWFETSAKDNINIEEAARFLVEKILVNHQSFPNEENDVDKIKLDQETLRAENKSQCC

LRRK2 1-552 (from UniProt Q5S007)
2000 nM: all assays above
